Data on two substances can be found in article PMC2901902.

For assay [1], the target named is histone H3 acetylated at lysine 14 in C2C12 chromatin (mouse (endogenous in C2C12)) (UniProt P68433). Nature of the assay: re-ChIP.
The target of assay [2] is DPF3b PHD12 with Ala mutation of Glu315 or Asp335. As to the kind of experiment: ITC. (In general: ITC needs no label: the signal is the heat of the interaction.)

In assay [1], EGFP-DPF3b D263A or F264A mutant gave a fold reduction of co-occupancy (against wild type DPF3b) of 2 to 3 fold.

On to “histone H3 peptide acetylated at lysine 14 (residues 1–18) (from UniProt P68431 2-19)”, for which the fold reduction in affinity (against wild type PHD12) in assay [2] was in the range of 80 to 250 fold.
